Laboratory results published in paper PMC8882475.
pKd: −log10 of the molar value.

What was measured:
Test in all cases: BLI
[1] = molecular target: biotinylated SARS-CoV-2 S protein RBD, Beta variant (K417N, E484K, N501Y) (SARS-CoV-2) (UniProt P0DTC2)
[2] = molecular target: SI–F019, huACE2 (18–615) - IgG1 Fc null (human) (UniProt Q9BYF1)
Bamlanivimab = molecular target: Bamlanivimab
[3] = molecular target: SARS-CoV-2 RBD (original, WT) (SARS-CoV-2) (UniProt P0DTC2)
[4] = molecular target: SARS-CoV-2 RBD, Alpha (N501Y) (SARS-CoV-2) (UniProt P0DTC2)
[5] = molecular target: SARS-CoV-2 RBD, Beta (K417N, E484K, N501Y) (SARS-CoV-2) (UniProt P0DTC2)
[6] = molecular target: SARS-CoV-2 RBD, Delta (L452R, T478K) (SARS-CoV-2) (UniProt P0DTC2)
[7] = molecular target: SARS-CoV-2 RBD, Gamma (K417T, E484K, N501Y) (SARS-CoV-2) (UniProt P0DTC2)
[8] = molecular target: SARS-CoV-2 RBD, Kappa (L452R, E484Q) (SARS-CoV-2) (UniProt P0DTC2)
[9] = molecular target: SARS-CoV-2 RBD, Lambda (L452Q, F490S) (SARS-CoV-2) (UniProt P0DTC2)
[10] = molecular target: SARS-CoV-2 S1 protein (SARS-CoV-2)
[11] = molecular target: SARS-CoV-2 spike trimer, full-length extracellular domain (ECD), His tagged (SARS-CoV-2) (UniProt P0DTC2)

## Imdevimab (antibody)
[1]
  pKd: > 12.00

## SARS-CoV-2 RBD, Delta (L452R, T478K) (from UniProt P0DTC2) (domain or fragment)
[2]
  pKd: 8.14

## SARS-CoV-2 RBD, Lambda (L452Q, F490S) (from UniProt P0DTC2) (domain or fragment)
[2]
  pKd: 7.87

## SARS-CoV-2 S1 protein (domain or fragment)
[2]
  pKd: 7.83
  koff: 0.00493 s⁻¹
  kon: 337000 M⁻¹ s⁻¹

## SARS-CoV-2 S protein RBD, Delta variant (L452R, T478K) (from UniProt P0DTC2) (domain or fragment)
Bamlanivimab
  pKd: 8.44

## SI–F019, huACE2 (18–615) - IgG1 Fc null (from UniProt Q9BYF1-1 18-615) (Fc fusion)
[3]
  pKd: 9.94
[4]
  pKd: 10.72
[5]
  pKd: 10.20
[6]
  pKd: 10.85
[7]
  pKd: 10.21
[8]
  pKd: > 12.00
[9]
  pKd: 10.05
[10]
  pKd: 9.54
[11]
  pKd: 9.74

## Tixagevimab (antibody)
[1]
  pKd: > 12.00
